Test results from publication PMC10927535.

T1: LSH3-DBD S45-S190 (Arabidopsis thaliana, UniProt O82268 45-190)
T1 sequence: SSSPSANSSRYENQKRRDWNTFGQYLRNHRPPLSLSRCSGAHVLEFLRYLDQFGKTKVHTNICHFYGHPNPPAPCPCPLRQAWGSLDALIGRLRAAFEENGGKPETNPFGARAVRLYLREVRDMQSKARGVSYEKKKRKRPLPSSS

T2: LSH1-DBD M1-L166 (Arabidopsis thaliana, UniProt Q6NNI3 1-166)
T2 sequence: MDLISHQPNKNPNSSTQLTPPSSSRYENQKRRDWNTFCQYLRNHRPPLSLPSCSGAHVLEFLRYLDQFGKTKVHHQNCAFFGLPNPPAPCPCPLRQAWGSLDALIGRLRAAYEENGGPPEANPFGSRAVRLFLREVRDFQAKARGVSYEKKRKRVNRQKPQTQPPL


Columns and labels:
LSH3-DBD S45-S190 [1] = biological target: T1, LSH3-DBD S45-S190; test: EMSA
LSH1-DBD M1-L166 = biological target: T2, LSH1-DBD M1-L166; test: EMSA
LSH3-DBD S45-S190 [2] = biological target: T1, LSH3-DBD S45-S190; test: crystal structure

Binder	Kd (LSH3-DBD S45-S190 [1]) [nM]	Kd (LSH1-DBD M1-L166) [nM]	binding result (LSH3-DBD S45-S190 [2])
WT ALOG motif probe (perfect motif) (dsDNA) DNA 1: GCGTAGTTTACTGTTGACGTAG DNA 2: CTACGTCAACAGTAAACTACG	28	< 50	–
LSH perfect motif 17 bp (oPR799/oPR800) (dsDNA) DNA 1: TAGTTTACTGTTGACGT DNA 2: ACGTCAACAGTAAACTA	–	–	binds
